The text below walks through data of US6271440, “Plant regulatory proteins III” (The Australian National University).

Series [1] addresses T1, GAMYB (OsGAMYB) (Oryza sativa) (UniProt Q0JIC2).
T1 sequence: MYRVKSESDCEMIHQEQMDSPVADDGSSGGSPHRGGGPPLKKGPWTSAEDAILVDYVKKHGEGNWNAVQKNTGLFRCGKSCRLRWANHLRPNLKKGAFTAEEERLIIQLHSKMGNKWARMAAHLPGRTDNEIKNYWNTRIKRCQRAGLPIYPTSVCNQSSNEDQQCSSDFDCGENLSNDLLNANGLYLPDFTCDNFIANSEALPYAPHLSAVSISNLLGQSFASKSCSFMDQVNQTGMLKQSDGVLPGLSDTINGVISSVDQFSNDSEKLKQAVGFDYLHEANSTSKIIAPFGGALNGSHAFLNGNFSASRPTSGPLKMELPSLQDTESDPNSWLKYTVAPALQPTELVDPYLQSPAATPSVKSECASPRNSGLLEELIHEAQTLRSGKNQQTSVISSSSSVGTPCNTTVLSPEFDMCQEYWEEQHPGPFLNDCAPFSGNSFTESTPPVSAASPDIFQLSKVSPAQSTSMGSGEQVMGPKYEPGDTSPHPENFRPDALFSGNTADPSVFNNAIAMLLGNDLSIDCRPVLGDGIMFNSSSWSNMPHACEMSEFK
Put plainly: cell_activity. To be noted: GUS increase without GA versus empty Ubi1.cass effector.

In series [2] the target is Glutathione-S-transferase (GST control) (UniProt P08515 P08515:1-218). In words: EMSA; GST alone control. As to conditions: tags: pGEX vector; label: 32P; 5' overhangs. On the procedure: (§1) After annealing the complementary oligonucleotides were 3' end-labelled using ^32P-dCTp and the Klenow fragment, and purified by electrophoresis on polyacrylamide gels. Bacterially-produced GAMYB fusion protein-oligonucleotide binding reactions were performed in 10 µl binding buffer (24 mM Hepes-KOH pH 7.9, 50 mM KCl, 0.5 mM EDTA, 0.5 mM dithiothreitol, 10% (v/v) glycerol) with 2 µg of poly(dI-dC)-poly(dI-dC), 150 ng of GAMYB fusion protein and 0.9 ng of a $^32$P-labelled oligonucleotide probe (40,000 cpm). After incubation at 20° C. for 10 min, the samples were run on a 6% (w/v) polyacrylamide gel containing 5% (v/v) glycerol, in 0.25 x Tris-borate-EDTA buffer at 140 volts. After electrophoresis, the gels were dried and autoradiographed.
(§2) To test whether GAMYB binds to the TAACAAA box in the high-pI α-amylase promoter, we performed gel-retardation experiments as described in Example 8. We looked for binding between an oligonucleotide probe (w) containing the amylase promoter sequence (−149 to −128), including the wild-type TAACAAA box and an affinity-purified glutathione-s-transferase (GST)-GAMYB fusion protein that had been expressed in Escherichia coil according to Example 7. […] Experiments were also performed using mutant oligonucleotide probes (m-1 to m-5).

Series [3] has as its target T2, GAMYB (HvGAMYB), GST fusion (Hordeum vulgare).
T2 chain: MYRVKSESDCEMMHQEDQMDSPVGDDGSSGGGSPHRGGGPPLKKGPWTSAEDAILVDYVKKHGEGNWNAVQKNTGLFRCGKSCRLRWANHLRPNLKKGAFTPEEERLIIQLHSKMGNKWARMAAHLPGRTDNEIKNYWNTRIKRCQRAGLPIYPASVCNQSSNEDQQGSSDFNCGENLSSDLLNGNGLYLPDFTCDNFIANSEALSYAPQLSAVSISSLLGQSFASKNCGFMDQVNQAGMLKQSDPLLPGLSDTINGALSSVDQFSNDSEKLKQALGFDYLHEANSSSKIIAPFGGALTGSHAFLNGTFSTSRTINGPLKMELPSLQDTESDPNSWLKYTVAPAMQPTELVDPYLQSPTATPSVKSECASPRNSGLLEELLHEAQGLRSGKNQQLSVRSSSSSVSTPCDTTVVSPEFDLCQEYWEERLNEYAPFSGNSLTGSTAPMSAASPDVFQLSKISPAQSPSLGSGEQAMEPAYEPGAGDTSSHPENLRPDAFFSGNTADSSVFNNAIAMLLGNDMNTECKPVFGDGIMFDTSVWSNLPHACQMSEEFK
In words: EMSA; 24 mM Hepes-KOH pH 7.9, 50 mM KCl, poly(dI-dC), 20 C; 100-fold cold w abolishes complex. To be noted: tags: N-terminal GST (pGEX), E. coli XL1-blue; label: 32P; 5' overhangs. On the procedure:
as §1, §2
In general terms: A gel shift assay detects complexes by their altered migration in electrophoresis.

Series [4] addresses T2, GAMYB (HvGAMYB), GST fusion. In words: EMSA; TAACAGAc; mutation had no effect on binding. As to conditions: tags: N-terminal GST (pGEX), E. coli XL1-blue; label: 32P; 5' overhangs. Here is the method: as §1, §2
The target is the same in series [5]. Put plainly: EMSA; single mutation at 3' end of site. To be noted: tags: N-terminal GST (pGEX), E. coli XL1-blue; label: 32P; 5' overhangs. Here is the method:
as §1, §2

The target is the same in series [6]. In words: EMSA; single mutation TGACAAAc. As to conditions: tags: N-terminal GST (pGEX), E. coli XL1-blue; label: 32P; 5' overhangs. Here is the method:
as §1, §2

Series [7] has the same target. Put plainly: EMSA; multi-bp mutation abolishes binding. To be noted: tags: N-terminal GST (pGEX), E. coli XL1-blue; label: 32P; 5' overhangs. On the procedure:
as §1, §2

Chain of Glutathione-S-transferase (GST control) (P08515 whole entry, the tested form may be a part, one chain of several): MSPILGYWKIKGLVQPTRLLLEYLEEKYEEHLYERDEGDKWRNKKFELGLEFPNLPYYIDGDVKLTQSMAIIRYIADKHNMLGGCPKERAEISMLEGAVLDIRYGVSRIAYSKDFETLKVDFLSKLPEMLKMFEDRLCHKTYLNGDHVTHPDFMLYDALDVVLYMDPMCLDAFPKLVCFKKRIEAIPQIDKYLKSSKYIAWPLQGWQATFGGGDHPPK

As for “Amy32b low-pI alpha-amylase promoter (mlo22)”, the activity in series [1] came out at 176 fold.

B1: w (dsDNA)
DNA 1: GGCCGATAACAAACTCCGG
DNA 2: CCGGAGTTTGTTATCGGCC
In the case of B1, the binding result in series [2] is recorded as “no binding”; in series [3], “binds”.

B2: m-3 (dsDNA)
DNA 1: GGCCGATAACAGACTCCGG
DNA 2: CCGGAGTCTGTTATCGGCC
As for B2, the binding result in series [4] is given as “binds”.

B3: m-5 (dsDNA)
DNA 1: GGCCGATAACAAAATCCGG
DNA 2: CCGGATTTTGTTATCGGCC
Turning to B3, the binding result in series [5] is “no binding”.

B4: m-2 (dsDNA)
DNA 1: GGCCGATGACAAACTCCGG
DNA 2: CCGGAGTTTGTCATCGGCC
In the case of B4, the binding result in series [6] was “no binding”.

B5: m-4 (dsDNA)
DNA 1: GGCCGATAACAAGCTCCGG
DNA 2: CCGGAGCTTGTTATCGGCC
As for B5, in series [5], the binding result is “no binding”.

B6: m-1 (dsDNA)
DNA 1: GGCCGACTCGAGACTCCGG
DNA 2: CCGGAGTCTCGAGTCGGCC
For B6, the binding result in series [7] is given as “no binding”.
